For assay [1], the system named is myasthenogenic antibody mAB 198. The assay can be described thus: Peptide microarray mimotope screen, binding of mAB 198 to linear and cyclic peptides (fluorescence readout). Also noted: species or system rat. The conditions noted are these: cyclic mimotopes; binding of mAB 198, relative fluorescent signal after normalization against background. The text has this:
A custom peptide array of 30000 peptides was synthesized, with peptides of 7-19 amino acids in size; the peptides were based on substitution analyses of 176 AChR-MIR peptides with exchanges of each amino acid positions by each of the 20 common amino acids. Peptides were synthesized directly on a microarray, and screened with monoclonal antibody mAB 198 in order to obtain mimotopes with a binding strength which was improved over the human AChR alpha chain MIR-containing sequence […] (Tzartos et al, 1991; Luo et al, 2009) and over a previously published mimotope sequence ([…]), that was derived from Torpedo AchR with the help of antibody mAB 132A (Trinh et al, 2014). In particular, the wild type AChR-MIR sequence is known to structurally mimic to a certain extent the epitope recognized by myasthenogenic, unwanted and disease-causing antibodies from patients. The mimotope peptide library was designed by permutation of each single amino acid position of these two sequences with all natural amino acids in order to provide a maximally diversified collection of peptide variants. All peptides were synthesized in doublets as linear and as cyclic peptides. The aim was to obtain peptides (mimotopes) that mimic the natural epitope of myasthenogenic antibodies.
For the mimotope screen, the antibody mAB 198 (Absolute Antibody Ltd, UK) was used. This is a prototype antibody that was generated in rats using human AChR (Tzartos et al, 1983; Asher et al, 1993). […] Therefore, mAB198 was used as a surrogate probe to screen for new mimotopes that are capable of mimicking the corresponding AChR-MIR epitope or portions of the epitope.
As a readout, binding of mAB 198 to the 30000 linear and cyclic peptides was measured by fluorescence readout, and peptides were ranked according to their relative fluorescent signal after normalization against the background.
The top-ranked 100 linear and cyclic mimotopes are listed in Table 1 and Table 2 above, respectively.

Assay [2] has as its target monoclonal antibody mAB 198. The assay can be described thus: peptide microarray, fluorescence, linear peptide.

As for 199 (RLRTNPADY) [compound 199], in assay [1], the “relative signal [%]” value was 8.6%. 200 (GGSLRLNPADY) [compound 200]: the “relative signal [%]” value in assay [1] is on record as 8.5%. RLNPADY [RLNPADY, linear mimotope] showed a relative signal [%] in assay [2] of 17.7%. On the same count and under the same terms, in the case of NPADYGD [NPADYGD, linear mimotope] it was 14.1%.

On to GSLRFNPAD, for which, in assay [2], the relative signal [%] worked out at 9.3%. NPADYRG [NPADYRG, linear mimotope] returned a relative signal [%] in assay [2] of 71.4%. Still for that read-out and setting: in the case of SLHWNPADY it was 13.6%; in that of GSLRRNPAD, 9.5%; in that of RWNPADF [RWNPADF, linear mimotope], 12.6%. Still for that read-out and setting: next, LRLNPAD [LRLNPAD, linear mimotope]: 25.2%; NPADYGY [NPADYGY, linear mimotope]: 21.2%. The molecule RLHWNPADY yielded a relative signal [%] in assay [2] of 20.2%.

NPADYGV [NPADYGV, linear mimotope] displayed a relative signal [%] in assay [2] of 6%. VRLRRNPAD returned a relative signal [%] in assay [2] of 25%.

GGGSLRFNP displayed a relative signal [%] in assay [2] of 13%. In the case of NPADYGR [NPADYGR, linear mimotope], the relative signal [%] in assay [2] came to 12.2%. Still for that read-out and setting: next, IDVRLRYNP: 12.2%; RLRVNPADY: 14.9%.

In the case of LRINPADYG, the relative signal [%] in assay [2] was 12.6%. The same measure, in the same setting: next, NPADYDG [NPADYDG, linear mimotope]: 10.3%. On the same count and under the same terms, next, NPADYGH [NPADYGH, linear mimotope]: 18.1%; YNLKFNP [YNLKFNP, linear mimotope]: 13.7%. Still for that read-out and setting: next, NPDDYHG [NPDDYHG, linear mimotope]: 21.3%; RLRFNPADY: 11.4%; RWNPADYGH: 9.4%. In turn, LRWNPADYH displayed a relative signal [%] in assay [2] of 15.3%. Molecule WNPADYP [WNPADYP, linear mimotope] displayed a relative signal [%] in assay [2] of 20.5%. Still for that read-out and setting: next, NPADYPG [NPADYPG, linear mimotope]: 19.8%; WNPADYH [WNPADYH, linear mimotope]: 9.4%.

In assay [2], CNLKFNP [CNLKFNP, linear mimotope] gave a relative signal [%] of 11%. On the same count and under the same terms, next, LRGNPAD [LRGNPAD, linear mimotope]: 48%; SLRWNPADYHG: 10.6%. Still for that read-out and setting: in the case of LRRNPADYG it was 28.3%; in that of QWIDVRLRFNP, 20.1%; in that of RRNPADY [RRNPADY, linear mimotope], 9.9%. Take LHWNPAD [LHWNPAD, linear mimotope]: the relative signal [%] in assay [2] stood at 15.7%. The same measure, in the same setting: next, DVRLRFNPADY: 10%; RLRWNPADYHG: 12.4%; NPADYHG [NPADYHG, linear mimotope]: 59.3%. Still for that read-out and setting: in the case of RFNPADY [RFNPADY, linear mimotope] it was 21.8%; in that of VRLRFNP [VRLRFNP, linear mimotope], 27.1%. Still for that read-out and setting: in the case of RYNPADY [RYNPADY, linear mimotope] it was 16.5%.

In assay [2], SLRINPADY gave a relative signal [%] of 11%. In assay [2], LRYNPAD [LRYNPAD, linear mimotope] returned a relative signal [%] of 15.9%. As to LLGGGSLRFNP, in assay [2], the relative signal [%] was 16.7%. Still for that read-out and setting: next, RGNPADYGG: 13%; WNPADYGHI: 13.7%. The same measure, in the same setting: next, LRRNPAD [LRRNPAD, linear mimotope]: 100%; VRLRWNPADYP: 56.7%; RINPADY [RINPADY, linear mimotope]: 12.2%.

Turning to RLYWNPADY, the relative signal [%] in assay [2] amounted to 11%.

Take GGGSLRRNPAD: the relative signal [%] in assay [2] was 10.6%.

In turn, WNPDDYR [WNPDDYR, linear mimotope] showed a relative signal [%] in assay [2] of 11.4%. Still for that read-out and setting: in the case of QWIDVRLRYNP it was 13.4%; in that of IDVRLRFNP, 15%. The same measure, in the same setting: next, RPNPADY [RPNPADY, linear mimotope]: 9.5%; LRLNPADYG: 17.3%; QWVDYNLKFNP: 10.9%. Same read-out and setting: in the case of WNPADYR [WNPADYR, linear mimotope] it was 40.6%. Turning to LRWNPADYGGF, the relative signal [%] in assay [2] worked out at 10.6%.

In assay [2], VRLRYNP [VRLRYNP, linear mimotope] displayed a relative signal [%] of 26.3%. On the same count and under the same terms, next, GSLRFNP [GSLRFNP, linear mimotope]: 21.6%.

These data come from patent US20230381328A1, “COMPOUND FOR THE PREVENTION OR TREATMENT OF MYASTHENIA GRAVIS” (ABLEVIA BIOTECH GMBH, priority 2020, published 2023).
